Columns and labels:
GDF8 = target: T1, GDF8 (Homo sapiens, UniProt O14793); experiment: A-204 reporter gene assay, pGL3(CAGA)12 luciferase; type: cell-based; design: host or cells: exogenous factor added to A-204 cells (human rhabdomyosarcoma); conditions: Example 13
T1 sequence (O14793 267-375): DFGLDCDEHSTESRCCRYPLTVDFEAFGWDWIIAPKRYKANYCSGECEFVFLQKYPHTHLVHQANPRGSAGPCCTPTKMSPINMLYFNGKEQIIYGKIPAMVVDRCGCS
Excerpt: (§1) Day 1: Split A-204 cells into 48-well plate. […]
(§2) In addition, an A-204 Reporter Gene Assay was used to evaluate the effects of ALK4-Fc:ActRIIB-Fc heterodimer and ActRIIB-Fc:ActRIIB-Fc homodimer on signaling by activin A, activin B, GDF11, GDF8, BMP10, and BMP9. Cell line: Human Rhabdomyosarcoma (derived from muscle). Reporter vector: pGL3(CAGA)12 (as described in Dennler et al, 1998, EMBO 17: 3091-3100). The CAGA12 motif is present in TGFβ responsive genes (PAI-1 gene), so this vector is of general use for factors signaling through Smad2 and 3. An exemplary A-204 Reporter Gene Assay is outlined below. • Day 1: Split A-204 cells into 48-well plate. • Day 2: A-204 cells transfected with 10 ug pGL3(CAGA)12 or pGL3(CAGA)12(10 ug)+pRLCMV (1 ug) and Fugene. • Day 3: Add factors (diluted into medium+0.1% BSA). Inhibitors need to be pre-incubated with Factors for about one hr before adding to cells. About six hrs later, cells are rinsed with PBS and then lysed.
(§3) Following the above steps, a Luciferase assay was performed.

GDF11 = target: T2, GDF11 (Homo sapiens, UniProt O95390); experiment: A-204 reporter gene assay, pGL3(CAGA)12 luciferase; type: cell-based; conditions: Example 13
T2 sequence (O95390 299-407): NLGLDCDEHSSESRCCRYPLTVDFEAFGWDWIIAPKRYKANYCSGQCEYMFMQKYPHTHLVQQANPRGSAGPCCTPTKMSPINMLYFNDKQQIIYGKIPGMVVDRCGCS
Excerpt: as §1, §2, §3

activin A = target: T3, activin A (Homo sapiens, UniProt P08476); experiment: A-204 reporter gene assay, pGL3(CAGA)12 luciferase; type: cell-based; conditions: Example 13
T3 sequence (P08476 311-426): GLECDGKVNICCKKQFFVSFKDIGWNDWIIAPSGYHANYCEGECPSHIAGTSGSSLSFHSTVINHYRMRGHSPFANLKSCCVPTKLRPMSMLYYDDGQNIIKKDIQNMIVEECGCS
Excerpt: An A-204 reporter gene assay was used to evaluate the effects of ActRIIB-Fc proteins and GDF traps on signaling by GDF-11 and activin A. Cell line: human rhabdomyosarcoma (derived from muscle). Reporter vector: pGL3(CAGA)12 (described in Dennler et al, 1998, EMBO 17: 3091-3100). The CAGA12 motif is present in TGF-beta responsive genes (e.g., PAI-1 gene), so this vector is of general use for factors signaling through SMAD2 and 3.
Day 1: Split A-204 cells into 48-well plate.
Day 2: A-204 cells transfected with 10 ug pGL3(CAGA)12 or pGL3(CAGA)12(10 ug)+pRLCMV (1 μg) and Fugene.
Day 3: Add factors (diluted into medium+0.1% BSA). Inhibitors need to be preincubated with factors for 1 hr before adding to cells. Six hrs later, cells were rinsed with PBS and lysed.
This is followed by a luciferase assay.
as §2, §3

[1] = test system: rat model of pulmonary arterial hypertension (PAH), monocrotaline (MCT) induced; experiment: monocrotaline rat model of pulmonary arterial hypertension; type: in vivo, Sprague Dawley rats
Method: The effects of an ActRIIA-mFc fusion protein (ActRIIA-mFc homodimer as described in Example 1), an ALK4-Fc-ActRIIB-Fc heterodimer (as described in Examples 12 and 13), and sildenafil (a phosphodiesterase-5 inhibitor approved for the treatment of PAH) were examined in a rat model of pulmonary arterial hypertension (PAH). In this model, Sprague Dawley rats received a […] injection of monocrotaline (MCT) to induce PAH 24 hours prior to start of therapy.
Rats were separated into different treatment groups (10 mice per group): 1) treatment with MCT (60 mg/kg administered i.p. as a single dose at day 1 of study) and Tris buffered saline (i.p. as 1 ml/kg, every three days) (vehicle treatment group), 2) treatment with an ActRIIA-mFc polypeptide (10 mg/kg administered i.p. every three days) and MCT (60 mg/kg administered i.p. as a single dose at day 1 of study), 3) treatment with an ALK4-Fc:ActRIIB-Fc heterodimer (10 mg/kg administered i.p. every three days) and MCT (60 mg/kg administered i.p. as a single dose at day 1 of study), 4) treatment with sildenafil (30 mg/kg administered orally twice daily) and MCT (60 mg/kg administered i.p. as a single dose at day 1 of study), and 5) control rats (Tris buffered saline administered i.p. as 1 ml/kg, every three days). Rats were treated for 28 days. Body weights were recorded prior to first dose on Day 1 and then weekly throughout the study.
On day 28, rats were anesthetized by an intraperitoneal injection of ketamine/xylazine (80/10 mg/kg). An incision was made in the neck, and a jugular vein was isolated and ligated anteriorly. A fluid-filled pressure catheter was introduced into the right jugular vein to measure pulmonary artery pressure (PAP). Another incision was made in the inguinal region, and femoral artery was isolated and ligated anteriorly. A Millar pressure catheter was introduced into a femoral artery to measure systolic arterial pressure, diastolic pressure, and heart rate. Mean arterial pressure and right PAP were monitored using the Notocord HEM (Croissy sur Seine, Frnace) v3.5 data capture system for approximately 5-10 minutes until stable measurements were obtained. During the measurements, rats were maintained at approximately 37° C. on a heating pad and body temperature was monitored throughout the procedure with a rectal temperature probe. At the conclusion of the procedure, rats were euthanized, and the hearts and lungs were removed. The entire heart was weighed. Next, the atria were removed and the left ventricle with septum (LV+S) was separated from the right ventricle (RV). The ventricles were weighed separately. Hypertrophy was assessed, in part, by calculating RV/LV+S. The lungs were also weighed.
Similar trends were observed on vessel muscularity based on histopathologic scoring. After staining tissue samples to detect αSMA/elastin, 100 pulmonary arterioles, between 10 μm and 50 μm in size, per animal were categorized as non-muscularized, partially muscularized, or completely muscularized. Pulmonary arterioles from vehicle treated rats were determined to be 62.3% completely muscularized, 36.4% partially muscularized, and 1.4% non-muscularized. […] Histopathological scoring of smooth muscle hypertrophy of pulmonary arterioles were also recorded as follows: 0 (normal), 1 (minimal), 2 (mild), 3 (moderate), or 4 (marked).

B1: ALK4-Fc:ActRIIB-Fc heterodimer: heteromeric complex of extracellular domains of human ActRIIB and human ALK4, each separately fused to an Fc domain with a linker (protein)
chain 1: SGPRGVQALLCACTSCLQANYTCETDGACMVSIFNLDGMEHHVRTCIPKVELVPAGKPFYCLSSEDLRNTHCCYTDYCNRIDLRVPSGHLKEPEHPSMWGPVE
chain 2: GRGEAETRECIYYNANWELERTNQSGLERCEGEQDKRLHCYASWRNSSGTIELVKKGCWLDDFNCYDRQECVATEENPQVYFCCCEGNFCNERFTHLPEAGGPEVTYEPPPTAPT
modifications: left off: a dimerising Fc or GST; small tags and cut ends
notes: heteromeric complex of extracellular domains of human ActRIIB and human ALK4, each separately fused to an Fc domain with a linker
- inhibition of GDF8 signaling (GDF8): potent inhibitors
- inhibition of GDF11 signaling (GDF11): potent inhibitors
- inhibition of activin A signaling (activin A): potent inhibitors
- improvement in body weight ([1]; 28 days, compared to monocrotaline treated rats, proteins 10 mg/kg i.p. every three days, sildenafil 30 mg/kg orally twice daily): +5.1%
- decrease of right heart hypertrophy ([1]; day 28, RV/LV+S, compared to monocrotaline treated rats): 39.6%
- decrease of lung weight ([1]; day 28, compared to monocrotaline treated rats): 19.0%
- reduction of elevated PAP ([1]; day 28, compared to monocrotaline treated rats, same dosing): 44.6%
- effect in reducing vascular muscularization compared with sildenafil ([1]; monocrotaline-induced model): greater effect
